B1: Avr 5'C biotin hairpin (dsDNA)
DNA: ATCTTAGCACCTGGTTGGAGGGGGTTTATGGGGTTTTCCCCATAAACCCCCTCCAACCAGGTGCTAAGAT
B2: Avr 5'A biotin hairpin (dsDNA)
DNA: B1 DNA with G30T, C41A
B3: Avr 5'G biotin hairpin (dsDNA)
DNA: B1 DNA with G30C, C41G

Where a chain is given by its changes, count along the chain named.

These results are taken from patent US20230304022, “CHIMERIC POLYPEPTIDES HAVING TARGETED BINDING SPECIFICITY” (The Scripps Research Institute, published 2023).

For this data set, the target named is MBP-TALE AvrXa7 NT-βN (synthetic, [XXX]=Y-H). In words: p228, FIG 26. As to conditions: tags: MBP; label: 5'-biotin; hairpin.
Turning to B1, the binding result is “binds”.

Turning to B2, the binding result is “binds”.

In the case of B3, the binding result was “binds”.
